{"source": "paper PMC11869757", "about": "(Drug Design, Development and Therapy, 2025)", "binders": {"B1": {"name": "SHR-1916, PEGylated interleukin-2 analogue (IL-2 N26Q/N29S/F42A/N71Q/L72G/C125A with a 20 kDa PEG at the N-terminus) (ligand)", "chain": "APTSSSTKKTQLQLEHLLLDLQMILQGISNYKNPKLTRMLTAKFYMPKKATELKHLQCLEEELKPLEEVLQGAQSKNFHLRPRDLISNINVIVLELKGSETTFMCEYADETATIVEFLNRWITFAQSIISTLT", "modifications": "20 kDa PEG on the N-terminal amine group"}}, "molecular_target": "T1, CD122/IL-2Rβ with a His-tag (Sino Biological, 10696-H08B) (human, UniProt P14784)", "T1 sequence": "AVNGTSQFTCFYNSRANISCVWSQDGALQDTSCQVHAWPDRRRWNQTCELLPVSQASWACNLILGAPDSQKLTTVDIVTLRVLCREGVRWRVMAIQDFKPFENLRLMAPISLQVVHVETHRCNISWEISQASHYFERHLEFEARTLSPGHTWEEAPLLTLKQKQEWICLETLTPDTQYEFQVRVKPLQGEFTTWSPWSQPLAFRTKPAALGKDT", "assay": "SPR", "data": [{"binder": "B1", "values": [{"measurement": "Kd", "result": 1710, "unit": "nM"}]}]}
